# In patent publication US20250043302A1, “MUTATED HYDROXYPHENYLPYRUVATE DIOXYGENASE POLYPEPTIDE, AND CODING GENE AND USE THEREOF” (BEIJING DABEINONG BIOTECHNOLOGY CO., LTD., priority 2021, published 2025):
# B1: AsHPPDm-F372V-02: nucleotide sequence encoding Avena sativa HPPD with F372V; vector DBN11776 (nucleic acid)
# DNA: ATGCCACCTACTCCAGCTACAGCTACTGGTGCTGCTGCTGCTGCCGTTACTCCTGAGCACGCTGCCAGGTCATTCCCCAGGGTGGTTCGCGTGAACCCCAGATCTGATAGGTTCCCAGTTCTGAGCTTCCACCATGTTGAGCTGTGGTGCGCTGATGCTGCTTCTGCTGCTGGCAGGTTCTCTTTCGCTCTTGGTGCTCCACTCGCTGCTAGATCTGATCTGTCTACAGGAAATAGCGCTCATGCCTCACTCCTGCTTCGCTCAGGTGCTTTGGCCTTCCTCTTCACCGCTCCATATGCTCCCCCACCTCAGGAGGCTGCTACTGCTGCTGCTACAGCCTCCATTCCAAGCTTCTCAGCTGATGCCGCTAGAACCTTCGCTGCTGCTCATGGACTTGCCGTGAGGTCTGTTGGTGTTCGCGTGGCTGATGCTGCTGAGGCTTTCAGAGTTTCCGTTGCCGGCGGAGCTAGGCCAGCTTTCGCTCCTGCTGATTTGGGACATGGTTTCGGCCTGGCTGAGGTTGAGCTTTACGGTGACGTGGTTCTCCGCTTCGTGTCTTACCCAGATGAGACTGACCTGCCTTTCCTTCCCGGCTTCGAGAGAGTTTCCTCTCCTGGTGCCGTGGATTACGGCCTGACAAGGTTCGACCACGTGGTTGGAAACGTTCCCGAGATGGCTCCAGTGATCGATTACATGAAGGGCTTCCTTGGATTCCATGAGTTCGCCGAGTTCACTGCTGAGGACGTGGGAACCACTGAGTCCGGTTTGAACTCTGTGGTTCTCGCCAACAATTCTGAGGCTGTTTTGCTCCCTCTGAATGAGCCTGTGCATGGAACCAAGAGGAGAAGCCAGATTCAAACTTACCTGGAGTACCACGGTGGCCCTGGAGTTCAGCATATCGCCCTTGCTTCTAATGATGTGTTGCGCACACTCAGAGAGATGCGCGCCAGAACCCCCATGGGAGGTTTCGAGTTCATGGCCCCACCACAGGCTAAGTACTACGAGGGCGTTAGAAGGATTGCTGGAGACGTGTTGAGCGAGGAGCAGATCAAGGAGTGCCAAGAGCTGGGTGTTCTTGTGGATAGGGATGACCAGGGCGTTCTGCTTCAAATTGTCACTAAGCCAGTGGGCGACCGCCCTACATTCTTCCTTGAGATGATTCAAAGAATCGGCTGCATGGAGAAGGATGAGGTTGGACAGGAGTACCAAAAGGGCGGATGCGGTGGCTTCGGAAAGGGTAACTTCAGCGAGTTGTTCAAGTCAATCGAGGACTACGAGAAGAGCCTCGAGGTGAAGCAGTCAGTGGTTGCCCAAAAGTCCTGA
# modifications: AsHPPDm-F372V-02 Nucleotide Sequence
# notes: vector DBN11776
# Columns and labels:
# Format in all cases: in vivo
# [1] = tested on: Arabidopsis thaliana T1 plants; assay: Isoxaflutole tolerance of transgenic Arabidopsis thaliana T1 plants (spray, bleached leaf area grade, damage score); conditions: Arabidopsis thaliana T1 plants; for Grade 0 (classification and statistics of the grade of pesticide damage; number of plants) / Grade 1 (classification and statistics of the grade of pesticide damage; number of plants) / Grade 2 (classification and statistics of the grade of pesticide damage; number of plants) / Grade 3 (classification and statistics of the grade of pesticide damage; number of plants): 16 plants;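 for Scores: Weighted damage index from 0 to 100 where higher means more damage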
# Method in brief: (§1)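 T1 transformants selected by glufosinate; 18-day-old plants, with empty-vector and wild-type controls, sprayed with topramezone (25–200 g ai/ha), isoxaflutole (35–280 g ai/ha) or mesotrione (52.5–420 g ai/ha), water as 0×. Bleached leaf area fraction scored at 7 DAT as grades 0–3.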
# [2] = tested on: Arabidopsis thaliana T1 plants; assay: Topramezone tolerance of transgenic Arabidopsis thaliana T1 plants (spray, bleached leaf area grade, damage score); conditions: for Resistance evaluation / Scores / Grade 0 (classification and statistics of the grade of pesticide damage; number of plants) / Grade 1 (classification and statistics of the grade of pesticide damage; number of plants) / Grade 2 (classification and statistics of the grade of pesticide damage; number of plants) / Grade 3 (classification and statistics of the grade of pesticide damage; number of plants): Arabidopsis thaliana T1 plants; for Grade 0 (classification and statistics of the grade of pesticide damage; number of plants) / Grade 1 (classification and statistics of the grade of pesticide damage; number of plants) / Grade 2 (classification and statistics of the grade of pesticide damage; number of plants) / Grade 3 (classification and statistics of the grade of pesticide damage; number of plants): 16 plants
# Method in brief: as §1
# [3] = tested on: Arabidopsis thaliana T1 plants; assay: Mesotrione tolerance of transgenic Arabidopsis thaliana T1 plants (spray, bleached leaf area grade, damage score); set-up: Scores: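 damage score 0-100 computed as Σ(N×S)/(T×M)×100 over grades 0-3 with higher meaning more damage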; conditions: Table 9; for Classification and statistics of the grade of pesticide damage Grade 0: number of plants at grade 0; for Classification and statistics of the grade of pesticide damage Grade 1: number of plants at grade 1; for Classification and statistics of the grade of pesticide damage Grade 2: number of plants at grade 2; for Classification and statistics of the grade of pesticide damage Grade 3: number of plants at grade 3; for Scores: pesticide damage score
# Method in brief: as §1
# [4] = isoxaflutole 140 g ai/ha (2x field concentration)
# [5] = isoxaflutole 280 g ai/ha (4x field concentration)
# [6] = topramezone 100 g ai/ha (4x field concentration)
# [7] = topramezone 200 g ai/ha (8x field concentration)
molecule,measurement,setting,value
B1,Resistance evaluation,[1]; [4],Moderately
same,Scores,[1]; [4],33
same,Grade 0 (classification and statistics of the grade of pesticide damage; number of plants),[1]; [4],6
same,Grade 1 (classification and statistics of the grade of pesticide damage; number of plants),[1]; [4],5
same,Grade 2 (classification and statistics of the grade of pesticide damage; number of plants),[1]; [4],4
same,Grade 3 (classification and statistics of the grade of pesticide damage; number of plants),[1]; [4],1
same,Resistance evaluation,[1]; [5],Poorly resistant
same,Scores,[1]; [5],67
same,Grade 0 (classification and statistics of the grade of pesticide damage; number of plants),[1]; [5],0
same,Grade 1 (classification and statistics of the grade of pesticide damage; number of plants),[1]; [5],0
same,Grade 2 (classification and statistics of the grade of pesticide damage; number of plants),[1]; [5],16
same,Grade 3 (classification and statistics of the grade of pesticide damage; number of plants),[1]; [5],0
same,Resistance evaluation,[2]; [6],Highly resistant
same,Scores,[2]; [6],0
same,Grade 0 (classification and statistics of the grade of pesticide damage; number of plants),[2]; [6],16
same,Grade 1 (classification and statistics of the grade of pesticide damage; number of plants),[2]; [6],0
same,Grade 2 (classification and statistics of the grade of pesticide damage; number of plants),[2]; [6],0
same,Grade 3 (classification and statistics of the grade of pesticide damage; number of plants),[2]; [6],0
same,Resistance evaluation,[2]; [7],Highly resistant
same,Scores,[2]; [7],0
same,Grade 0 (classification and statistics of the grade of pesticide damage; number of plants),[2]; [7],16
same,Grade 1 (classification and statistics of the grade of pesticide damage; number of plants),[2]; [7],0
same,Grade 2 (classification and statistics of the grade of pesticide damage; number of plants),[2]; [7],0
same,Grade 3 (classification and statistics of the grade of pesticide damage; number of plants),[2]; [7],0
same,tolerance to topramezone (resistance class),[2]; topramezone at four-fold or eight-fold field concentration,highly-resistant
same,Resistance evaluation,[3]; mesotrione 210 g ai/ha (2×),Moderately
same,Classification and statistics of the grade of pesticide damage Grade 0,[3]; mesotrione 210 g ai/ha (2×),5
same,Classification and statistics of the grade of pesticide damage Grade 1,[3]; mesotrione 210 g ai/ha (2×),7
same,Classification and statistics of the grade of pesticide damage Grade 2,[3]; mesotrione 210 g ai/ha (2×),4
same,Classification and statistics of the grade of pesticide damage Grade 3,[3]; mesotrione 210 g ai/ha (2×),0
same,Scores,[3]; mesotrione 210 g ai/ha (2×),31
same,Resistance evaluation,[3]; mesotrione 420 g ai/ha (4×),Poorly resistant
same,Classification and statistics of the grade of pesticide damage Grade 0,[3]; mesotrione 420 g ai/ha (4×),0
same,Classification and statistics of the grade of pesticide damage Grade 1,[3]; mesotrione 420 g ai/ha (4×),8
same,Classification and statistics of the grade of pesticide damage Grade 2,[3]; mesotrione 420 g ai/ha (4×),7
same,Classification and statistics of the grade of pesticide damage Grade 3,[3]; mesotrione 420 g ai/ha (4×),1
same,Scores,[3]; mesotrione 420 g ai/ha (4×),52
